For one assay, the target named is T1, 人ICOS (HTRF测定) (human, UniProt Q9Y6W8 21-140, limits assumed).
T1 construct: the HTRF construct is described only in US 9,957,323; also called human ICOS; ICOS受体
T1 sequence (looked up): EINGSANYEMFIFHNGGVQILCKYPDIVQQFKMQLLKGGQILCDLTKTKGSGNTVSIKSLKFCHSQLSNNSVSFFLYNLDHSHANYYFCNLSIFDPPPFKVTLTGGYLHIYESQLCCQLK
In words: HTRF binding assay, HEK supernatant with human IgG1 antibody. (TR-FRET usually uses a lanthanide donor and a delayed reading to cut background.)

The next assay has as its target T2, 小鼠ICOS (HTRF测定) (mouse, UniProt Q9WVS0 21-144, limits assumed).
T2 construct: the HTRF construct is described only in US 9,957,323; also called mouse ICOS; mICOS
T2 sequence (looked up): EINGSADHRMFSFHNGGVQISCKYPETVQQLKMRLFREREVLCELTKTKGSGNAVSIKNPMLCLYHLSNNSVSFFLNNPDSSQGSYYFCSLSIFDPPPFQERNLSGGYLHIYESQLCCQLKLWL
The assay is described as above.

Assay [1] addresses T3, 细胞表面上表达的人ICOS (human, UniProt Q9Y6W8 21-199).
T3 construct: whole, on cells; also called hICOS; human ICOS on CHO-S cells
T3 sequence (looked up): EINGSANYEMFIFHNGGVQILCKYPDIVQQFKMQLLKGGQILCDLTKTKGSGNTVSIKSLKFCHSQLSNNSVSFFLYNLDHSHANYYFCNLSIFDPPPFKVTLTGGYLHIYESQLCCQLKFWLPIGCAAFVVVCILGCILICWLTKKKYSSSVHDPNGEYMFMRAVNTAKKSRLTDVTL
Kind of assay: flow cytometry on CHO-S cells expressing ICOS, purified IgG1.

For assay [2], the target named is T4, CHO-S细胞表面上表达的小鼠ICOS (mouse, UniProt Q9WVS0 21-200).
T4 construct: whole, on cells; also called mICOS; mouse ICOS on CHO-S cells
T4 sequence (looked up): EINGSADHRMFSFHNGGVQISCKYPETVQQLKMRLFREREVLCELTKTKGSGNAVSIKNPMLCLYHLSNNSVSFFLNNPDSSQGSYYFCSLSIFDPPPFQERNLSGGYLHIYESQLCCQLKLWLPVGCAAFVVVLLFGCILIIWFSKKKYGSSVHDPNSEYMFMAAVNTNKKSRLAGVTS
Described as above.

Assay [3] deals with T3, 细胞表面上表达的人ICOS. Kind of assay: Mirrorball assay on CHO-S cells expressing ICOS; total binding defined by reference antibody, non-specific by hybrid control hIgG1.
For assay [4], the target named is T4, CHO-S细胞表面上表达的小鼠ICOS. Described as above.
Assay [5] deals with T3, 细胞表面上表达的人ICOS. Kind of assay: receptor occupancy on patients' CD4 memory T cells, chip cytometry.

B1: CL-61091 (antibody, V domains shown)
VH: QVQLMQSGTEVKKPGASVKVSCKTSGYTFTTYGITWVRQAPGQGLEWMGWISAYSGDTDYAQKFQGRVTVTTDTSTNTAYMELRSLKSDDTAVYYCARSSGWPHHYGMDVWGQGTTVTVSS
VL: DIVMTQSPLSLPVTPGEPASISCRSSQSLLHSNGFNYFDWYLQKPGQSPQLLIFLVSNRASGVPDRFSGSGSGTDFTLKISRVEAEDVGIYYCMQALQTPLTFGGGTKVEIK
In the case of B1, the “作用 (% effect, 等式1)” value with 人ICOS (HTRF测定) and in the assay with 小鼠ICOS (HTRF测定) was over 5% in each case. Also, the “fold over negative control (几何平均值)” value with 细胞表面上表达的人ICOS [1] and with CHO-S细胞表面上表达的小鼠ICOS [2] was > 10 倍 throughout. In addition, the “作用 (% effect)” value with 细胞表面上表达的人ICOS [3] and with CHO-S细胞表面上表达的小鼠ICOS [4] was over 1% in each case.

B2: CL-74570 (antibody, V domains shown)
VH: EVQLVESGGGVIRPGGSLRLSCAASGFTFDDYGMSWVRQAPGKGLEWVSGINWIGDNTDYADSVKGRFTISRDNAKNSLYLQMNSLRAEDTALYYCARDYFGSGSYYNVPF
VL: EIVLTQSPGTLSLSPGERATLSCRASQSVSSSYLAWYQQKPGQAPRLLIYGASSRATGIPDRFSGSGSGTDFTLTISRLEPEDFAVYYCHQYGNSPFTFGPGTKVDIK
With B2, the “作用 (% effect, 等式1)” value with 人ICOS (HTRF测定) and in the assay with 小鼠ICOS (HTRF测定) was over 5% each time. Also, the “fold over negative control (几何平均值)” value with 细胞表面上表达的人ICOS [1] and with CHO-S细胞表面上表达的小鼠ICOS [2] was > 10 倍 in each case. For the same molecule, the “作用 (% effect)” value in the assay with 细胞表面上表达的人ICOS [3] and with CHO-S细胞表面上表达的小鼠ICOS [4] was over 1% throughout.

B3: STIM003 (antibody, V domains shown)
VH: EVQLVESGGGVVRPGGSLRLSCVASGVTFDDYGMSWVRQAPGKGLEWVSGINWNGGDTDYSDSVKGRFTISRDNAKNSLYLQMNSLRAEDTALYYCARDFYGSGSYYHVPFDYWGQGILVTVSS
VL: EIVLTQSPGTLSLSPGERATLSCRASQSVSRSYLAWYQQKRGQAPRLLIYGASSRATGIPDRFSGDGSGTDFTLSISRLEPEDFAVYYCHQYDMSPFTFGPGTKVDIKR
notes: also called KY1044; SAR445256
As for B3, the binding result with 细胞表面上表达的人ICOS [5] was “binds”.

Source of the values: CN117460529A (dated 2024).
